Here are results for three molecules from patent US20250002583A1 (PERSONGEN BIOTHERAPEUTICS SUZHOU, published 2025).

This experiment addresses T1, B7-H3 (CD276) Protein, Human, Recombinant (His Tag) (Human, UniProt Q5ZPR3 29-461, limits assumed).
T1 construct: Bought protein; also called CD276-His recombinant protein; CD276 recombinant protein; not shown: His tag
T1 sequence (looked up): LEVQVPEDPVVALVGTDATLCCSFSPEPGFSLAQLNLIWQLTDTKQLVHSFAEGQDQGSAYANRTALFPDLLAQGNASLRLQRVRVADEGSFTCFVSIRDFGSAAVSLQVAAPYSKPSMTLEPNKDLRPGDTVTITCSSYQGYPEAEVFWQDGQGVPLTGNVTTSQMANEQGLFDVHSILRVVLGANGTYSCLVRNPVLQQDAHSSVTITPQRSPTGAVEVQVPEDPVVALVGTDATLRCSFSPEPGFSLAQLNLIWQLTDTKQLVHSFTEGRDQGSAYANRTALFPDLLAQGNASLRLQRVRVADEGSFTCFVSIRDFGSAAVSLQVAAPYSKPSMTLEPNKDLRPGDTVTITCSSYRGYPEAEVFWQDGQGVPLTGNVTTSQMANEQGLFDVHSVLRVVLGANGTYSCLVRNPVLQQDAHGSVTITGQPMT
Description: SPR (BiaCore T200), CD276 recombinant protein amine-coupled on CM5 chip, antibody as analyte. (In SPR one partner is held on a chip, and binding of the other changes the refractive index at the surface.)

B1: CD276 Chimeric (antibody, V domains shown)
VH: EVTLVESGGGLVKPGGSLKLSCAASGFTFSTYVMSWVRQTPEKRLEWVASILSGGTSFYADNVKGRFTISRENARNILYLQMSSLKSEDTAMYYCVRRYGHDHYYAMDYWGQGTSVTVSS
VL: QIVLTQSPANMSASLGERVTMTCAASSSVSSSYLHWYQQKPGSSPKLWIYSTSNLASGVPGRFNGSGSGTSYSLTISSMEAEDAATYYCHQYHRSPWTFGGGTKLEIK
notes: Murine variable regions cloned into pcDNA3.1-IgG1Fc (heavy) and pcDNA3.1-IgKc (light); also called human-mouse chimeric antibody; human-murine chimeric antibody
Take B1: the Kd was 70.8 nM, the off-rate (koff) came to 0.00258 s⁻¹ and the on-rate (kon) is 36400 M⁻¹ s⁻¹.

B2: CD276T1H1-T1L1 (antibody, V domains shown)
VH: EVQLVESGGGLIQPGGSLRLSCAASGFTFSTYVMSWVRQAPGKGLEWVSSILSGGTSFYADNVKGRFTISRDNSKNTLYLQMNSLRAEDTAVYYCARRYGHDHYYAMDYWGQGTLVTVSS
VL: EIVLTQSPATLSLSPGERATLSCAASSSVSSSYLHWYQQKPGLAPRLLIYSTSNLASGIPDRFSGSGSGTDFTLTISRLEPEDFAVYYCQQYHRSPWTFGGGTKVEIK
notes: Heavy chain variable region cloned into pcDNA3.1-IgG1Fc and light chain variable region into pcDNA3.1-IgKc (IgG1, kappa); also called humanized CD276 antibody (CD276T1H1-T1L1); CD276 humanized antibody
Consider B2, for which the Kd stood at 114 nM, the koff is 0.00282 s⁻¹ and the kon turned out to be 24800 M⁻¹ s⁻¹.

B3: CD276T2H1-T2L1 (antibody, V domains shown)
VH: EVQLVESGGGVVRPGGSLRLSCAASGFTFSTYVMSWVRQAPGKGLEWVSSILSGGTSFYADNVKGRFTISRDNAKNSLYLQMNSLRAEDTALYHCARRYGHDHYYAMDYWGQGTTVTVSS
VL: DIQMTQSPSTLSASVGDRVTITCAASSSVSSSYLHWYQQKPGKAPKLLIYSTSNLASGVPSRFSGSGSGTEFTLTISSLQPDDFATYYCQQYHRSPWTFGQGTKLEIK
notes: Heavy chain variable region cloned into pcDNA3.1-IgG1Fc and light chain variable region into pcDNA3.1-IgKc (IgG1, kappa)
B3: the Kd stood at 72.8 nM, the koff was 0.00289 s⁻¹ and the kon was 39700 M⁻¹ s⁻¹.

The Kd is the constant that tells how readily two partners part at equilibrium. A word on the koff: it is a measure of how fast the partners let go of each other. A word on the kon: it is a measure of how fast the partners come together.
